We go through 47 variants from the Human Domainome abundance scans (Beltran et al. 2025).

Sequences and labels used below:
B1: Transcription elongation regulator 1-like protein, residues 448 to 504; numbered along this chain, Q5VWI1 (parent)
chain: LPLEERVTHFRDMLLERGVSAFSTWEKELHKIVFDPRYLLLNSEERKQIFEQFVKTR

± gives the uncertainty stated by the source.

In the series the parent is B1. Briefly: abundance fitness (aPCA) (normalised: wild type 0, dead -1); higher = more abundant; growth selection in yeast, the domain comes from the species named. To be noted: Homo sapiens.
Turning to LPLEERVTHFRDMLLERGESAFSTWEKELHKIVFDPRYLLLNSEERKQIFEQFVKTR, the abundance fitness is -0.893 ± 0.14. Under LPLEERVTHFRDMLLERGCSAFSTWEKELHKIVFDPRYLLLNSEERKQIFEQFVKTR stands -0.611 ± 0.44; under LPLEERVTHFRDMLLERGWSAFSTWEKELHKIVFDPRYLLLNSEERKQIFEQFVKTR, -0.767 ± 0.27; under LPLEERVTHFRDMLLERGKSAFSTWEKELHKIVFDPRYLLLNSEERKQIFEQFVKTR, -0.376 ± 0.29. The value for LPLEERVTHFRDMLLSRGVSAFSTWEKELHKIVFDPRYLLLNSEERKQIFEQFVKTR was -0.797 ± 0.17; that for LPLEERVTHFRDMLLNRGVSAFSTWEKELHKIVFDPRYLLLNSEERKQIFEQFVKTR was -0.657 ± 0.36; that for LPLEERVTHFRDMLLKRGVSAFSTWEKELHKIVFDPRYLLLNSEERKQIFEQFVKTR was 0.226 ± 0.24.

As to LPLEERVTHFRDMLLTRGVSAFSTWEKELHKIVFDPRYLLLNSEERKQIFEQFVKTR, the abundance fitness is -0.851 ± 0.16. For LPLEERVTHFRDMLLARGVSAFSTWEKELHKIVFDPRYLLLNSEERKQIFEQFVKTR, the abundance fitness is -0.46 ± 0.27. The value for LPLEERVTHFRDMLLVRGVSAFSTWEKELHKIVFDPRYLLLNSEERKQIFEQFVKTR was -0.666 ± 0.24.

With LPLEERVTHFRDMLLIRGVSAFSTWEKELHKIVFDPRYLLLNSEERKQIFEQFVKTR, the abundance fitness is -0.976 ± 0.31. In the case of LPLEERVTHFRDMLLWRGVSAFSTWEKELHKIVFDPRYLLLNSEERKQIFEQFVKTR, the abundance fitness is -0.646 ± 0.3. Under LPLEERVTHFRDMLLYRGVSAFSTWEKELHKIVFDPRYLLLNSEERKQIFEQFVKTR stands -0.882 ± 0.24. The value for LPLEERVTHFRDMLLQRGVSAFSTWEKELHKIVFDPRYLLLNSEERKQIFEQFVKTR was 0.176 ± 0.12. Turning to LPLEERVTHFRDMLLGRGVSAFSTWEKELHKIVFDPRYLLLNSEERKQIFEQFVKTR, the abundance fitness was -0.868 ± 0.34. Under LPLEERVTHFRDMLLCRGVSAFSTWEKELHKIVFDPRYLLLNSEERKQIFEQFVKTR stands -0.632 ± 0.22.

For the variant LPLEERVTHFRDMLLRRGVSAFSTWEKELHKIVFDPRYLLLNSEERKQIFEQFVKTR, the abundance fitness was -1.09 ± 0.35. The value for LPLEERVTHFRDMLLMRGVSAFSTWEKELHKIVFDPRYLLLNSEERKQIFEQFVKTR was -0.438 ± 0.16. For LPLEERVTHFRDMLLFRGVSAFSTWEKELHKIVFDPRYLLLNSEERKQIFEQFVKTR, the abundance fitness is -0.568 ± 0.24. The value for LPLEERVTHFRDMLLLRGVSAFSTWEKELHKIVFDPRYLLLNSEERKQIFEQFVKTR was -1.01 ± 0.49. The value for LPLEERVTHFRDMLLERGVSACSTWEKELHKIVFDPRYLLLNSEERKQIFEQFVKTR was 0.078 ± 0.12; that for LPLEERVTHFRDMLLEKGVSAFSTWEKELHKIVFDPRYLLLNSEERKQIFEQFVKTR was 0.64 ± 0.17. Regarding LPLEERVTHFRDMLLEAGVSAFSTWEKELHKIVFDPRYLLLNSEERKQIFEQFVKTR, the abundance fitness was -0.465 ± 0.39.

LPLEERVTHFRDMLLEHGVSAFSTWEKELHKIVFDPRYLLLNSEERKQIFEQFVKTR: the abundance fitness is -0.02 ± 0.13. Under LPLEERVTHFRDMLLEVGVSAFSTWEKELHKIVFDPRYLLLNSEERKQIFEQFVKTR stands -0.434 ± 0.32; under LPLEERVTHFRDMLLENGVSAFSTWEKELHKIVFDPRYLLLNSEERKQIFEQFVKTR, -0.218 ± 0.32. Under LPLEERVTHFRDMLLEMGVSAFSTWEKELHKIVFDPRYLLLNSEERKQIFEQFVKTR stands -0.237 ± 0.27; under LPLEERVTHFRDMLLEEGVSAFSTWEKELHKIVFDPRYLLLNSEERKQIFEQFVKTR, -0.479 ± 0.43. The value for LPLEERVTHFRDMLLEIGVSAFSTWEKELHKIVFDPRYLLLNSEERKQIFEQFVKTR was -0.853 ± 0.23; that for LPLEERVTHFRDMLLEPGVSAFSTWEKELHKIVFDPRYLLLNSEERKQIFEQFVKTR was -0.249 ± 0.37; that for LPLEERVTHFRDMLLECGVSAFSTWEKELHKIVFDPRYLLLNSEERKQIFEQFVKTR was -0.151 ± 0.17.

As for LPLEERVTHFRDMLLEFGVSAFSTWEKELHKIVFDPRYLLLNSEERKQIFEQFVKTR, the abundance fitness was -0.368 ± 0.47. The value for LPLEERVTHFRDMLLELGVSAFSTWEKELHKIVFDPRYLLLNSEERKQIFEQFVKTR was -0.312 ± 0.23; that for LPLEERVTHFRDMLLEQGVSAFSTWEKELHKIVFDPRYLLLNSEERKQIFEQFVKTR was -0.287 ± 0.42; that for LPLEERVTHFRDMLLEGGVSAFSTWEKELHKIVFDPRYLLLNSEERKQIFEQFVKTR was -0.978 ± 0.25. Under LPLEERVTHFRDMLPERGVSAFSTWEKELHKIVFDPRYLLLNSEERKQIFEQFVKTR stands -0.548 ± 0.28; under LPLEERVTHFRDMLHERGVSAFSTWEKELHKIVFDPRYLLLNSEERKQIFEQFVKTR, -0.352 ± 0.37. Under LPLEERVTHFRDMLSERGVSAFSTWEKELHKIVFDPRYLLLNSEERKQIFEQFVKTR stands 0.054 ± 0.1; under LPLEERVTHFRDMLGERGVSAFSTWEKELHKIVFDPRYLLLNSEERKQIFEQFVKTR, -0.273 ± 0.11.

For LPLEERVTHFRDMLRERGVSAFSTWEKELHKIVFDPRYLLLNSEERKQIFEQFVKTR, the abundance fitness came out at 0.139 ± 0.088. Regarding LPLEERVTHFRDMLIERGVSAFSTWEKELHKIVFDPRYLLLNSEERKQIFEQFVKTR, the abundance fitness is -0.315 ± 0.32. For the variant LPLEERVTHFRDMLEERGVSAFSTWEKELHKIVFDPRYLLLNSEERKQIFEQFVKTR, the abundance fitness is 0.351 ± 0.26. Regarding LPLEERVTHFRDMLFERGVSAFSTWEKELHKIVFDPRYLLLNSEERKQIFEQFVKTR, the abundance fitness is -0.325 ± 0.38. Under LPLEERVTHFRDMLWERGVSAFSTWEKELHKIVFDPRYLLLNSEERKQIFEQFVKTR stands -0.406 ± 0.15; under LPLEERVTHFRDMLVERGVSAFSTWEKELHKIVFDPRYLLLNSEERKQIFEQFVKTR, -0.207 ± 0.15. For LPLEERVTHFRDMLNERGVSAFSTWEKELHKIVFDPRYLLLNSEERKQIFEQFVKTR, the abundance fitness was -0.154 ± 0.37. Consider LPLEERVTHFRDMLKERGVSAFSTWEKELHKIVFDPRYLLLNSEERKQIFEQFVKTR, for which the abundance fitness is -0.161 ± 0.26.
